Reference: patent publication US20200010571A1 (Janssen / Centocor, published 2020)
Positions count from the first letter of the chain named. Several values for one entry are separate records, joined by “and”; a condition that tells them apart may be missing. Identical values can stand only once.

Legend:
cynomolgus IL-17A [1] = molecular target: T1, cynomolgus IL-17A (cynomolgus, UniProt Q16552 24-155 (human entry), limits assumed); experiment: cell-based or functional assay
T1 chain: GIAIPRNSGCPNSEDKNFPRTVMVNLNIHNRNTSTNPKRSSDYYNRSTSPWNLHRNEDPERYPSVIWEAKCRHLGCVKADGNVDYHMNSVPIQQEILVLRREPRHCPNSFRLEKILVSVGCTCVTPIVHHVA

[2] = molecular target: T2, rhTNF-α (recombinant human, soluble) (human, UniProt P01375 77-233); experiment: cell-based or functional assay
[3] = molecular target: T3, human IL-17A (recombinant) (human, UniProt Q16552 24-155); experiment: competition ELISA: biotinylated rhIL-17A binding to plate-coated rhIL-17RA-Fc; Experiment 1; 95% CI 0.1171-0.1378
T3 construct: Biotinylated in the IL-17RA ELISA; also called rhIL-17A

[4] = molecular target: T4, recombinant human IL-17A/F heterodimer (human, UniProt Q16552 24-155; Q96PD4 31-163); experiment: cell-based or functional assay
[5] = molecular target: protease-resistant form of human transmembrane TNF-α (lacks amino acids Val1 to Pro12) overexpressed by K2 … (human, UniProt P01375 1-233); experiment: cell-based or functional assay
[6] = molecular target: native (endogenous) human TNF-α (human, UniProt P01375 77-233); experiment: cell-based or functional assay
[7] = molecular target: T3, human IL-17A (recombinant); experiment: competition ELISA: biotinylated rhIL-17A binding to plate-coated rhIL-17RA-Fc
recombinant human IL-17F = molecular target: T5, recombinant human IL-17F (human, UniProt Q96PD4 31-163); experiment: binding to rhIL-17A in the absence or presence of IL-17F
T5 sequence: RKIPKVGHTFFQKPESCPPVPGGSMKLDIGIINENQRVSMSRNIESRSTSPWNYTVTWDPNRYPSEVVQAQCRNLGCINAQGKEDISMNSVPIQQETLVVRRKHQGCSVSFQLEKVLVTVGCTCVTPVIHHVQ

cynomolgus IL-17A [8] = molecular target: T1, cynomolgus IL-17A; experiment: cell-based or functional assay
[9] = molecular target: T3, human IL-17A (recombinant); experiment: competition ELISA: biotinylated rhIL-17A binding to plate-coated rhIL-17RA-Fc; Experiment 3; 95% CI 0.2415-0.2667
[10] = molecular target: T4, recombinant human IL-17A/F heterodimer; experiment: cell-based or functional assay; remark: listed apart in the source
[11] = molecular target: T3, human IL-17A (recombinant); experiment: cell-based or functional assay
[12] = molecular target: T2, rhTNF-α (recombinant human, soluble); experiment: SPR (Biacore 3000), mAb captured by anti-IgG Fc, antigen in solution, 25 C, 1:1 Langmuir
[13] = molecular target: T2, rhTNF-α (recombinant human, soluble); experiment: cell-based or functional assay; remark: listed apart in the source
mouse TNF-α = molecular target: T6, mouse TNF-α (mouse, UniProt P06804 80-235); experiment: SPR (Biacore 3000), mAb captured by anti-IgG Fc, antigen in solution
T6 sequence: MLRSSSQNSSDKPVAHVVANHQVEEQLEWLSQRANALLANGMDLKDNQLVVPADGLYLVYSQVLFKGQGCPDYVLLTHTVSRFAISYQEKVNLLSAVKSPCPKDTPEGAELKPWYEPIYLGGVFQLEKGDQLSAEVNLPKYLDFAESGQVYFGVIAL

rat TNF-α = molecular target: T7, rat TNF-α (rat, UniProt P16599 80-235); experiment: as above
T7 sequence: T6 sequence with V23A, V59I, N92S, V97I, I118M, Q131L, F144I, A145T

[14] = molecular target: T2, rhTNF-α (recombinant human, soluble); experiment: cell-based or functional assay; remark: listed apart in the source
[15] = molecular target: T3, human IL-17A (recombinant); experiment: cell-based or functional assay; remark: listed apart in the source
cynomolgus TNF-α [16] = molecular target: T8, cynomolgus TNF-α (cynomolgus, UniProt P79337 77-233); experiment: cell-based or functional assay
[17] = molecular target: T3, human IL-17A (recombinant); experiment: SPR (Biacore 3000), mAb captured by anti-IgG Fc, antigen in solution, 25 C, 1:1 Langmuir
cynomolgus IL-17A [18] = molecular target: T1, cynomolgus IL-17A; experiment: SPR (Biacore 3000), mAb captured by anti-IgG Fc, antigen in solution, 1:1 Langmuir;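 also: run in PBS containing BSA and P20 at 25 °C, antigen injected at four dilutions, 3 min association, dissociation followed 20 min to 2 h, two independent experiments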
rat IL-17A = molecular target: T9, rat IL-17A (rat, UniProt Q61453 18-150); experiment: as above
T9 chain: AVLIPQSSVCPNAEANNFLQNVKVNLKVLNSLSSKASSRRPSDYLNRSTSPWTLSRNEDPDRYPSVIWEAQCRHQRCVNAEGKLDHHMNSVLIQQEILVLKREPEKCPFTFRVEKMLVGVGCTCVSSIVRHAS

mouse IL-17A = molecular target: T10, mouse IL-17A (mouse, UniProt Q62386 26-158); experiment: as above
T10 sequence: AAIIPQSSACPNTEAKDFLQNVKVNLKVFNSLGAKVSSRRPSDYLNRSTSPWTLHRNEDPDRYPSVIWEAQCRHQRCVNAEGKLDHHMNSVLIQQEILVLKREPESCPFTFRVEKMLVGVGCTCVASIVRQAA

cynomolgus TNF-α [19] = molecular target: T8, cynomolgus TNF-α; experiment: as above
[20] = molecular target: T3, human IL-17A (recombinant); experiment: competition ELISA: biotinylated rhIL-17A binding to plate-coated rhIL-17RA-Fc; Experiment 2; 95% CI 0.1639-0.1853

IC50 (µg/mL); Inhibition of cyno IL-17A mediated IL-6 production by NHDF; Experiment 3 (cynomolgus IL-17A [1]): 0.0476 µg/mL | IC50 [3]: 0.127 µg/mL | IC50 (µg/mL); Inhibition of IL-17A/F mediated GROα production by NHDF; Experiment 1 [4]: 0.283 µg/mL | IC50 (µg/mL); Inhibition of IL-17A/F mediated GROα production by NHDF; Experiment 2 [4]: 0.46 µg/mL | IC50 (µg/mL); Inhibition of IL-17A/F mediated GROα production by NHDF; Experiment 3 [4]: 0.435 µg/mL | fold IC50 against the parental anti-IL-17A antibodies mAb 4782 and mAb 7206 [7]: ~3 fold | binding result (recombinant human IL-17F): no binding | IC50 (µg/mL); Inhibition of cyno IL-17A mediated GROα production by NHDF; Experiment 3 (cynomolgus IL-17A [8]): 0.142 µg/mL | IC50 [9]: 0.254 µg/mL | IC50 (µg/mL); Inhibition of IL-17A/F mediated IL-6 production by NHDF; Experiment 1 [10]: 0.117 µg/mL | IC50 (µg/mL); Inhibition of IL-17A/F mediated IL-6 production by NHDF; Experiment 2 [10]: 0.133 µg/mL | IC50 (µg/mL); Inhibition of IL-17A/F mediated IL-6 production by NHDF; Experiment 3 [10]: 0.102 µg/mL | IC50 (µg/mL); Inhibition of native IL-17A mediated GROα production by NHDF; Experiment 1 [11]: 0.0755 µg/mL | IC50 (µg/mL); Inhibition of native IL-17A mediated GROα production by NHDF; Experiment 2 [11]: 0.0692 µg/mL | IC50 (µg/mL); Inhibition of native IL-17A mediated GROα production by NHDF; Experiment 3 [11]: 0.0653 µg/mL | Kd [12]: 0.0232 nM and 0.0192 nM | koff [12]: 4.07e-05 s⁻¹ and 3.76e-05 s⁻¹ | kon [12]: 1.75e+06 M⁻¹ s⁻¹ and 1.96e+06 M⁻¹ s⁻¹ | binding result (mouse TNF-α): no binding (tested: up to 100 nM) | binding result (rat TNF-α): no binding (tested: up to 100 nM) | IC50 (µg/mL); Inhibition of native IL-17A mediated IL-6 production by NHDF; Experiment 1 [15]: 0.0478 µg/mL | IC50 (µg/mL); Inhibition of native IL-17A mediated IL-6 production by NHDF; Experiment 2 [15]: 0.038 µg/mL | IC50 (µg/mL); Inhibition of native IL-17A mediated IL-6 production by NHDF; Experiment 3 [15]: 0.0608 µg/mL | Kd [17]: 0.0244 nM and 0.0389 nM | koff [17]: 4.36e-05 s⁻¹ and 3.74e-05 s⁻¹ | kon [17]: 1.78e+06 M⁻¹ s⁻¹ and 961000 M⁻¹ s⁻¹ | Kd (cynomolgus IL-17A [18]): 0.0265 nM and 0.0277 nM | koff (cynomolgus IL-17A [18]): 3.59e-05 s⁻¹ and 4.4e-05 s⁻¹ | kon (cynomolgus IL-17A [18]): 1.35e+06 M⁻¹ s⁻¹ and 1.59e+06 M⁻¹ s⁻¹ | Kd (rat IL-17A): 13.9 nM | koff (rat IL-17A): 0.00274 s⁻¹ | kon (rat IL-17A): 197000 M⁻¹ s⁻¹ | Kd (mouse IL-17A): 1.01 nM | koff (mouse IL-17A): 0.00101 s⁻¹ | kon (mouse IL-17A): 999000 M⁻¹ s⁻¹ | Kd (cynomolgus TNF-α [19]): 0.44 nM and 0.16 nM | koff (cynomolgus TNF-α [19]): 0.000114 s⁻¹ | kon (cynomolgus TNF-α [19]): 259000 M⁻¹ s⁻¹ and 710000 M⁻¹ s⁻¹ | IC50 [20]: 0.174 µg/mL
B1: mAb 8759 (bispecific anti-TNF-α/IL-17A antibody, IgG1, YTE) (bispecific antibody)
heavy 1: not shown
light 1: not shown
heavy 2: QVQLLESGGGLVQPGGSLRLSCAASGFTFSSYAMSWVRQAPGKGLEWVSTISLTSGFTYYADSVKGRFTISRDNSKNTLYLQMNSLRAEDTAVYYCARQLTLDVWGQGTLVTVSSASTKGPSVFPLAPSSKSTSGGTAALGCLVKDYFPEPVTVSWNSGALTSGVHTFPAVLQSSGLYSLSSVVTVPSSSLGTQTYICNVNHKPSNTKVDKKVEPKSCDKTHTCPPCPAPELLGGPSVFLFPPKPKDTLYITREPEVTCVVVDVSHEDPEVKFNWYVDGVEVHNAKTKPREEQYNSTYRVVSVLTVLHQDWLNGKEYKCKVSNKALPAPIEKTISKAKGQPREPQVYTLPPSREEMTKNQVSLTCLVKGFYPSDIAVEWESNGQPENNYKTTPPVLDSDGSFLLYSKLTVDKSRWQQGNVFSCSVMHEALHNHYTQKSLSLSPGK
light 2: QSVLTQPPSVSVAPGQTARISCSGDNLGDKYANWYQQKPGQAPVLVIYDDIDRPSGIPERFSGSNSGNTATLTISGTQAEDEADYYCGSYDFFLGMIVFGGGTKLTVLGQPKAAPSVTLFPPSSEELQANKATLVCLISDFYPGAVTVAWKADSSPVKAGVETTTPSKQSNNKYAASSYLSLTPEQWKSHRSYSCQVTHEGSTVEKTVAPTECS
fold of IC50 against the parental anti-TNF-α antibodies mAb 9809 and mAb 6696; rhTNF-α-induced cytotoxicity in WEHI-164 cells [2]: ~3 fold | IC50 (nM); KYM-1D4 cells, cytotoxicity mediated by membrane bound human TNF-α; Experiment 1 [5]: 0.653 nM | IC50 (nM); KYM-1D4 cells, cytotoxicity mediated by membrane bound human TNF-α; Experiment 2 [5]: 0.883 nM | IC50 (nM); KYM-1D4 cells, cytotoxicity mediated by membrane bound human TNF-α; Experiment 3 [5]: 0.3 nM | IC50 (nM); KYM-1D4 cells, cytotoxicity mediated by endogenous soluble TNF-α; Experiment 1 [6]: 0.283 nM | IC50 (nM); KYM-1D4 cells, cytotoxicity mediated by endogenous soluble TNF-α; Experiment 2 [6]: 0.294 nM | IC50 (nM); KYM-1D4 cells, cytotoxicity mediated by endogenous soluble TNF-α; Experiment 3 [6]: 0.143 nM | IC50 (nM); KYM-1D4 cells, cytotoxicity mediated by soluble rhTNF-α; Experiment 1 [13]: 0.13 nM | IC50 (nM); KYM-1D4 cells, cytotoxicity mediated by soluble rhTNF-α; Experiment 2 [13]: 0.261 nM | IC50 (nM); KYM-1D4 cells, cytotoxicity mediated by soluble rhTNF-α; Experiment 3 [13]: 0.147 nM | IC50 (nM); WEHI-164 cells cytotoxicity mediated by soluble rhTNF-α; Experiment 1 [14]: 1.2 nM | IC50 (nM); WEHI-164 cells cytotoxicity mediated by soluble rhTNF-α; Experiment 2 [14]: 1.73 nM | IC50 (nM); WEHI-164 cells cytotoxicity mediated by soluble rhTNF-α; Experiment 3 [14]: 0.478 nM | IC50 (nM); Inhibition of cyno TNF-α mediated cytotoxicity in WEHI-164 cells; Experiment 1 (cynomolgus TNF-α [16]): 3.82 nM | IC50 (nM); Inhibition of cyno TNF-α mediated cytotoxicity in WEHI-164 cells; Experiment 2 (cynomolgus TNF-α [16]): 14.9 nM | IC50 (nM); Inhibition of cyno TNF-α mediated cytotoxicity in WEHI-164 cells; Experiment 3 (cynomolgus TNF-α [16]): 7.32 nM
